Laboratory results: patent US20190185898A1 (UNIVERSITY OF MARYLAND BALTIMORE COUNTY, published 2019)

Biological target: T1, core-fucosylated complex type glycoform of rituximab (30)
T1 construct: Obtained from 28 by AlfC E274A catalysed core fucosylation; also called fucosylated rituximab (30); core fucosylated antibody (30)
Assay: ELISA, glycoprotein coated, AAL-biotin in serial dilution
Method: The glycoprotein (20, 21, 28 or 30) (10 μg/ml) in a phosphate buffer (pH 7.5) was coated onto a 96-well plate (UltraCruz®) at 4° C. for overnight. After wash twice, 2% bovine serum albumin in PBS containing Tween® 20 (PBST buffer) was added to block the plate for 2 h. Subsequently, after washed twice again, a serial dilution of AAL-biotin ranging from 0.1 μM to 1000 μM in PBST buffer was added and the plate was incubated for 1 h. After washing, peroxidase streptavidin (2 μg/mL) (Jackson ImmunoResearch Inc.) was added and incubated for 1 h. Finally, 100 μL of substrate, 3, 3′, 5, 5′-tetramethylbenzidine was added for signal development. The reaction was stopped by the adding 100 μL of 20% sulfuric acid (v/v). The absorbance at 450 nm was measured using SpectraMax M5 microplate reader (Molecular Devices). For the binding of the N-glycans, the Fmoc-labeled N-glycans released from 20, 21, 28 and 30 (1 μg/ml) were coated on the plate and the ELISA analysis was performed in the same manner as that of the glycoproteins.

B1: Aleuria aurantia lectin (AAL) (other, UniProt P18891 2-313, looked up)
chain: PTEFLYTSKIAAISWAATGGRQQRVYFQDLNGKIREAQRGGDNPWTGGSSQNVIGEAKLFSPLAAVTWKSAQGIQIRVYCVNKDNILSEFVYDGSKWITGQLGSVGVKVGSNSKLAALQWGGSESAPPNIRVYYQKSNGSGSSIHEYVWSGKWTAGASFGSTVPGTGIGATAIGPGRLRIYYQATDNKIREHCWDSNSWYVGGFSASASAGVSIAAISWGSTPNIRVYWQKGREELYEAAYGGSWNTPGQIKDASRPTPSLPDTFIAANSSGNIDISVFFQASGVSLQQWQWISGKGWSIGAVVPTGTPAGW
modifications: biotin label (AAL-biotin), site not stated
notes: Lectin that recognises the α1,6-fucosylated glycan; Added in serial dilution (0.1 µM to 1000 µM) to the coated glycoprotein; also called AAL-biotin
  EC50: 15 µM
  fold higher affinity than core-fucosylated RNase B (21): ~17 fold
